Source: patent US20250282874A1 (SUZHOU TRANSCENTA THERAPEUTICS, published 2025)
Substitutions are numbered along the chain they refer to.

What was measured:
[1] = target: T1, human PD-L1 expressed on cells (human, UniProt Q9NZQ7 19-290); test: flow cytometry on NCI-H460 cells, Mean FITC-A
T1 construct: whole, on cells; also called MC38/hPD-L1

[2] = target: T1, human PD-L1 expressed on cells; test: cell-based or functional assay
[3] = target: T1, human PD-L1 expressed on cells; test: flow cytometry on PHA-activated human PBMC (T cells), Mean APC-A
[4] = target: T1, human PD-L1 expressed on cells; test: cell-based or functional assay; remark: listed apart in the source
[5] = target: T2, hPD-L1 (Acro Biosystems, PD1-H5229) (human, UniProt Q9NZQ7 19-238); test: ELISA, hPD-L1 coated, anti-human Fc-HRP, OD450
T2 construct: also called human PD-L1; hPD-L1 protein

[6] = target: T1, human PD-L1 expressed on cells; test: flow cytometry on NCI-H292 cells, Mean FITC-A
[7] = target: T1, human PD-L1 expressed on cells; test: flow cytometry on 293T-PD-L1-CD3L cells, PE anti-human IgG, Mean PE-A
[8] = target: T1, human PD-L1 expressed on cells; test: flow cytometry on MC38/hPD-L1 cells, Mean FITC-A
human PD-L1-Fc = target: T3, human PD-L1-Fc (human, UniProt Q9NZQ7 19-239); test: competition ELISA, hPD-L1-Fc coated; blocked ligand hPD-1-Fc-biotin, OD450
T3 construct: also called hPD-L1-Fc; human PD-L1-Fc (Sino Biological, 70110-D02H); not shown: Fc part

[9] = target: T1, human PD-L1 expressed on cells; test: flow cytometry on activated human T cells, Mean FITC-A
[10] = target: T2, hPD-L1 (Acro Biosystems, PD1-H5229); test: ELISA, hPD-L1 coated, anti-human Fc-HRP, OD450; remark: listed apart in the source
[11] = target: cynomolgus PD-L1 on activated cynomolgus T cells (cynomolgus, UniProt G7PSE7 19-290); test: flow cytometry on PHA-activated cynomolgus PBMC (T cells), Mean APC-A
Chain of cynomolgus PD-L1 on activated cynomolgus T cells (G7PSE7 entry or part of it limits assumed): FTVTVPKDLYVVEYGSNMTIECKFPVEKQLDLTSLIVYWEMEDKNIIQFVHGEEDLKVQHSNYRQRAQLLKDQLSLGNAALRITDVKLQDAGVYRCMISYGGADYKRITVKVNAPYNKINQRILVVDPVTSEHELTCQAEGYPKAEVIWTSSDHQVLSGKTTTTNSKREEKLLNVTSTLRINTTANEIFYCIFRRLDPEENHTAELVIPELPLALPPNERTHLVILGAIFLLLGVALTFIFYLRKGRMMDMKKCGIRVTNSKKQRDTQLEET

human TGFβ1 = target: T4, human TGFβ1 (human, UniProt P01137 279-390); test: bridging ELISA, hTGFβ-1 coated, detected with hPD-L1-biotin and streptavidin-HRP
T4 construct: also called hTGFβ-1; TGFb1
T4 sequence (P01137 279-390 limits assumed): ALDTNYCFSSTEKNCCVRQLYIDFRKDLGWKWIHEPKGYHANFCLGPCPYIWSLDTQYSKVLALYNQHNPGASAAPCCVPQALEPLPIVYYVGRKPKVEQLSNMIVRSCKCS

[12] = target: T1, human PD-L1 expressed on cells; test: cell-based or functional assay; remark: listed apart in the source
cynoPD-L1-Fc = cynoPD-L1-Fc (cynomolgus, UniProt G7PSE7 19-238, Fc carrier is left out of the letters.); test: competition ELISA, cynoPD-L1-Fc coated; blocked ligand cyno PD-1-Fc-biotin, OD450
Chain of cynoPD-L1-Fc (G7PSE7 entry or part of it limits assumed): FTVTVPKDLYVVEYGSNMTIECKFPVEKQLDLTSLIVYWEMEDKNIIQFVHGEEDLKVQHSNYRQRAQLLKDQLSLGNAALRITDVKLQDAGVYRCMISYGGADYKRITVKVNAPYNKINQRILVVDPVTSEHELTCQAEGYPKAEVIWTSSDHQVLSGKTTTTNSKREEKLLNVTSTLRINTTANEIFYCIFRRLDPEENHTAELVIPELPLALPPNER

[13] = target: T1, human PD-L1 expressed on cells; test: flow cytometry on EMT6/hPD-L1 cells, Mean FITC-A
[14] = target: T1, human PD-L1 expressed on cells; test: flow cytometry on 293T-PD-L1-CD3L cells, Mean FITC-A as printed
[15] = target: T5, Human IL-1β protein (Sino Biological, Cat #10139) (human, UniProt P01584 117-269); test: ELISA, hIL-1β protein coated, anti-human Fc-HRP, OD450
T5 construct: also called hIL-1β

[16] = target: T5, Human IL-1β protein (Sino Biological, …); test: cell-based or functional assay
human CD47 = human CD47 (human, UniProt Q08722 19-139, limits assumed); test: ELISA on human CD47, OD450
Chain of human CD47 (Q08722 19-139 limits assumed): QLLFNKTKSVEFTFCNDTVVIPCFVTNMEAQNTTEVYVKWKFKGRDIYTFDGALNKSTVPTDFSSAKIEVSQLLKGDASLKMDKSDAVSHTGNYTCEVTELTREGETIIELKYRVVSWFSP

[17] = target: T2, hPD-L1 (Acro Biosystems, PD1-H5229); test: ELISA on human PD-L1, OD450

B1: AM4B6-hIgG1 monoclonal antibody (antibody, V domains shown)
VH: QVQLVQSGAEVKKPGASVKVSCKASGYVFTDYYMNWVRQAPGQSLEWMGDINPNNAETLYNHKFKGRVTVTVDKSISTAYMELSRLRSDDTAVYYCVKWGDGPFAYWGQGTLVTVSS
VL: DIQMTQSPSSLSASVGDRVTITCKASQNVGAAVAWYQQKPGKAPKLLIYSVSDRYTGVPSRFSGSGSGTDFTLTISSLQPEDIATYYCQQYSNYPTFGQGTKLEIK
notes: hIgG1; also called AM4B6 mAb; AM4B6 monoclonal antibody
B1 was tested, and the EC50 [1] was 222 pM, the “IC50 (so in the source), luminescence (axis printed OD450), 293T-PD-L1-CD3L cells with Jurkat-NFAT-Luc-PD1 cells” value [2] was 994 pM and the EC50 [3] was 267 pM. The “IC50 (so in the source), NFAT-luciferase luminescence, hPD-L1/hPD-1 reporter cell assay” value [4] was 714 pM, the EC50 [5] was 31.3 pM and the EC50 [6] was 199 pM. It also gave an EC50 [7] of 903 pM, an EC50 [8] of 299 pM and an IC50 (human PD-L1-Fc) of 2280 pM. It also gave an EC50 [9] of 160 pM, an EC50 [10] of 11.4 pM and an EC50 [11] of 684 pM. For the same binder, the binding result (human TGFβ1) was “no binding (tested: 100 nM)”, the “IC50 (so in the source), NFAT-luciferase luminescence, 293T-PD-L1-CD3L cells with Jurkat-NFAT-Luc-PD1 cells” value [12] was 1080 pM and the IC50 (cynoPD-L1-Fc) was 2060 pM. For the same binder, the EC50 [13] was 240 pM and the EC50 [14] was 774 pM.

B2: IgG-scFv-XOMA052-AM4B6 (bispecific antibody)
heavy: QVQLQESGPGLVKPSQTLSLTCSFSGFSLSTSGMGVGWIRQPSGKGLEWLAHIWWDGDESYNPSLKSRLTISKDTSKNQVSLKITSVTAADTAVYFCARNRYDPPWFVDWGQGTLVTVSSASTKGPSVFPLAPSSKSTSGGTAALGCLVKDYFPEPVTVSWNSGALTSGVHTFPAVLQSSGLYSLSSVVTVPSSSLGTQTYICNVNHKPSNTKVDKKVEPKSCDKTHTCPPCPAPEFEGGPSVFLFPPKPKDTLMISRTPEVTCVVVDVSHEDPEVKFNWYVDGVEVHNAKTKPREEQYNSTYRVVSVLTVLHQDWLNGKEYKCKVSNKALPASIEKTISKAKGQPREPQVYTLPPSRDELTKNQVSLTCLVKGFYPSDIAVEWESNGQPENNYKTTPPVLDSDGSFFLYSKLTVDKSRWQQGNVFSCSVMHEALHNHYTQKSLSLSPGAGGGGSGGGGSGGGGSGGGGSQVQLVQSGAEVKKPGASVKVSCKASGYVFTDYYMNWVRQAPGQSLEWMGDINPNNAETLYNHKFKGRVTVTVDKSISTAYMELSRLRSDDTAVYYCVKWGDGPFAYWGQGTLVTVSSGGGGSGGGGSGGGGSGGGGSDIQMTQSPSSLSASVGDRVTITCKASQNVGAAVAWYQQKPGKAPKLLIYSVSDRYTGVPSRFSGSGSGTDFTLTISSLQPEDIATYYCQQYSNYPTFGQGTKLTVL
light: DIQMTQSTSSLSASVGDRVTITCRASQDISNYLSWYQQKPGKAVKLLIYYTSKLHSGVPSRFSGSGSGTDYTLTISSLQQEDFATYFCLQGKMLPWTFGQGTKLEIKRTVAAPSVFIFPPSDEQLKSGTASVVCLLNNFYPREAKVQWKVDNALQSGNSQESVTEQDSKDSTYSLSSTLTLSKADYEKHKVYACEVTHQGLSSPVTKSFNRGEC
notes: Anti-IL-1β IgG (Gevokizumab) with the AM4B6 scFv on the C-terminus of the heavy chain
B2 was tested, and the “IC50 (so in the source), luminescence (axis printed OD450), 293T-PD-L1-CD3L cells with Jurkat-NFAT-Luc-PD1 cells” value [2] was 1490 pM, the EC50 [15] was 15.5 pM and the EC50 [10] was 34.9 pM. The “IC50, IL-6 release (pg/mL) of HDF cells stimulated with human IL-1β” value [16] was 14.1 pM and the EC50 [14] was 1400 pM.

B3: AM4B6-hIgG1-SIRPα (other)
heavy: QVQLVQSGAEVKKPGASVKVSCKASGYVFTDYYMNWVRQAPGQSLEWMGDINPNNAETLYNHKFKGRVTVTVDKSISTAYMELSRLRSDDTAVYYCVKWGDGPFAYWGQGTLVTVSSASTKGPSVFPLAPSSKSTSGGTAALGCLVKDYFPEPVTVSWNSGALTSGVHTFPAVLQSSGLYSLSSVVTVPSSSLGTQTYICNVNHKPSNTKVDKKVEPKSCDKTHTCPPCPAPEFEGGPSVFLFPPKPKDTLMISRTPEVTCVVVDVSHEDPEVKFNWYVDGVEVHNAKTKPREEQYNSTYRVVSVLTVLHQDWLNGKEYKCKVSNKALPASIEKTISKAKGQPREPQVYTLPPSRDELTKNQVSLTCLVKGFYPSDIAVEWESNGQPENNYKTTPPVLDSDGSFFLYSKLTVDKSRWQQGNVFSCSVMHEALHNHYTQKSLSLSPGAGGGGSGGGGSGGGGSGGGGSGEEELQIIQPDKSVLVAAGETATLRCTITSLFPVGPIQWFRGAGPGRVLIYNQRQGPFPRVTTVSDTTKRNNMDFSIRIGNITPADAGTYYCIKFRKGSPDDVEFKSGAGTELSVRAKPS
light: DIQMTQSPSSLSASVGDRVTITCKASQNVGAAVAWYQQKPGKAPKLLIYSVSDRYTGVPSRFSGSGSGTDFTLTISSLQPEDIATYYCQQYSNYPTFGQGTKLEIKRTVAAPSVFIFPPSDEQLKSGTASVVCLLNNFYPREAKVQWKVDNALQSGNSQESVTEQDSKDSTYSLSSTLTLSKADYEKHKVYACEVTHQGLSSPVTKSFNRGEC
notes: Symmetrical bifunctional antibody against PD-L1 and CD47 (SIRPα_CV1 on the heavy chain)
Work on B3 yielded an EC50 (human CD47) of 240 pM and an EC50 [17] of 154 pM.

B4: AM4B6-hIgG1-SIRPα (KIH) (other)
heavy 1: B3 heavy with S354C, T366W
heavy 2: QVQLVQSGAEVKKPGASVKVSCKASGYVFTDYYMNWVRQAPGQSLEWMGDINPNNAETLYNHKFKGRVTVTVDKSISTAYMELSRLRSDDTAVYYCVKWGDGPFAYWGQGTLVTVSSASTKGPSVFPLAPSSKSTSGGTAALGCLVKDYFPEPVTVSWNSGALTSGVHTFPAVLQSSGLYSLSSVVTVPSSSLGTQTYICNVNHKPSNTKVDKKVEPKSCDKTHTCPPCPAPEFEGGPSVFLFPPKPKDTLMISRTPEVTCVVVDVSHEDPEVKFNWYVDGVEVHNAKTKPREEQYNSTYRVVSVLTVLHQDWLNGKEYKCKVSNKALPASIEKTISKAKGQPREPQVCTLPPSRDELTKNQVSLSCAVKGFYPSDIAVEWESNGQPENNYKTTPPVLDSDGSFFLVSKLTVDKSRWQQGNVFSCSVMHEALHNHYTQKSLSLSPGK
light: B3 light
notes: Asymmetric (knob into hole) bifunctional antibody
Binder B4 has an EC50 (human CD47) of 167 pM and an EC50 [17] of 85.3 pM.
